B1: DNA replication regulator DPB11 (Saccharomyces cerevisiae), P47027 (parent)
chain: MKPFQGITFCPTAINNEILAKKISKKIIKLGGIFSKDLTRQVNVLVVGSTTNTNKFKFAVKHRFDIIFIDIQAIDDIYQLWLSGENILPDSNTATMTGSTYEMLKILYRRFSFKYLHNFNIFIGRITDTNITSIDSLVRSIKKLGCSSYNYQNFVIKDTSSHNDDDDQGQNGQISIFVTDTLLGARVNAAIEQNIPIVHFKWILDCQKRSALLPYDPYYLLPNIKDLPYDSIGSNSCDCWDKINTTFPTNIDAQSSLQRQQSSSTLTPSLPKTSSLLNKFKPKGEKIWDKAMSLQQHSKTNFSVLGQSPLSINNKQEDLSDNSTLIFKNCAFIIHHIFPGNHRSILTKIVVQNGGKIETSYLSGIYDHSYYIIPSNKALDSFNDLPEIIDDNDGIVTEFFIERCLYYQKLLHPIDLWSKPFLSTIEFQVSSSSKLLHHEFSSSPFLNVTITGFSGVELLHLTKVLNLLKPMGINYVEYLNKSTDILLINLAALPSIPKTHPLWSNEFSDLFTQFCINNNNDDPGDNNRKDFQNNSILRNSMKRKIEYIKKFHSIPVVTPAFIFKLLSAASGENNEIFLNNIKWCIICPRGHKDDFKCKIKKPYYTSISSEKKYQNNDPKIDKTILLKRNNSSLSEHSMKDTKNELLQKIRETDSGRKKRSVSSSIMDVSSERQMPDTKRIKLESLPKNFVPKQIKRTTSWGTIMSENVPTEQPTAISNPEEIPRTEEVSHTQVTYGSIQDKKRTASLEKPMRRQTRNQTKELDS
partner: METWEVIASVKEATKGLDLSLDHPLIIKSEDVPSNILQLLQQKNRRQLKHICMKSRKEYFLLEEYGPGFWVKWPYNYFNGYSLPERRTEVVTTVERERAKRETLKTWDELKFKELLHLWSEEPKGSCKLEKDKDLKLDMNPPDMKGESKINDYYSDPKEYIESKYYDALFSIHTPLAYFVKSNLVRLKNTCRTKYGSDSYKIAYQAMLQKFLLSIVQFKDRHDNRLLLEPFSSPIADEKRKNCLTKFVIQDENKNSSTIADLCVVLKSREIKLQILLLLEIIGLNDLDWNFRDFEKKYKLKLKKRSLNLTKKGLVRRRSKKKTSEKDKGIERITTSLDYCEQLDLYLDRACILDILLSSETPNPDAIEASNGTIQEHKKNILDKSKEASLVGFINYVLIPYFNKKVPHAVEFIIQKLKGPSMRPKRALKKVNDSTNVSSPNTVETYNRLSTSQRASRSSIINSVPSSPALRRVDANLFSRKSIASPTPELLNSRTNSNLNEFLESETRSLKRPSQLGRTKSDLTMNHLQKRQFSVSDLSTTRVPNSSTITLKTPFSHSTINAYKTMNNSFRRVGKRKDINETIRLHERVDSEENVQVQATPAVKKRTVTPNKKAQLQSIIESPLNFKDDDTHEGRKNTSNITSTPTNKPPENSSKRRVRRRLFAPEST

Variants of: B1
Settings: with sld3_yeast SLD3, P53135

effect of a mutation on the interaction	Variant
disrupting interaction strength	K55D;F56P

— IntAct's records for PubMed 17167417
